First the molecules themselves.
B1: Met4 72-160 (domain or fragment, yeast, UniProt P32389 72-160, looked up)
chain: VTNRGNTNLYDHAVTPEILLEQLAYVDNFIPSLDNEFSNVDWNVNTTHNNANNNGADTFSSINANPFDLDEQLAIELSAFADDSFIFPD

For assay [1], the target named is T1, Med15 KIX+ABD1,2,3 (Med15 1-651 Δ239-272, Δ373-483) (yeast, UniProt P19659 1-651, Δ239-272 | Δ373-483).
T1 sequence (looked up): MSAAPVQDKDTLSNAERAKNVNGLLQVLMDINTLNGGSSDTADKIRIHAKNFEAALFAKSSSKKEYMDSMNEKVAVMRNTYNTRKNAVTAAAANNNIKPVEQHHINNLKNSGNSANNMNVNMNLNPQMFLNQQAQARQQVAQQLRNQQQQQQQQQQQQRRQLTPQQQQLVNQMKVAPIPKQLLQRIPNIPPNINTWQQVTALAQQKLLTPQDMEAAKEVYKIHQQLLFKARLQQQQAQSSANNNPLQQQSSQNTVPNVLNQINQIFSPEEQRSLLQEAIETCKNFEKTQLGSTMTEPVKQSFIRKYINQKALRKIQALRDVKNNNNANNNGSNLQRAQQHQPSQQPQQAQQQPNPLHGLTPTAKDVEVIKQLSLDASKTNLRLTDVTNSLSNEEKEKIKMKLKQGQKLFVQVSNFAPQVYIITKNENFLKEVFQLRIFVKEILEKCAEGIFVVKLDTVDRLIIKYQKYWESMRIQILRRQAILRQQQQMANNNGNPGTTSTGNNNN
Kind of assay: cross-linking.

Assay [2] deals with T2, Med15 ABD2 (Med15 277-368) (yeast, UniProt P19659 277-368).
T2 sequence (looked up): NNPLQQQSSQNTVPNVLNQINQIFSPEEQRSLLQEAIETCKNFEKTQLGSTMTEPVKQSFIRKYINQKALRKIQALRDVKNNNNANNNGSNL
Kind of assay: ITC. On the technique in general: Isothermal titration calorimetry measures the heat released or taken up as one component is titrated into another.

Assay [3] concerns the target T3, Med15 ABD3 (Med15 484-651) (yeast, UniProt P19659 484-651).
T3 sequence (looked up): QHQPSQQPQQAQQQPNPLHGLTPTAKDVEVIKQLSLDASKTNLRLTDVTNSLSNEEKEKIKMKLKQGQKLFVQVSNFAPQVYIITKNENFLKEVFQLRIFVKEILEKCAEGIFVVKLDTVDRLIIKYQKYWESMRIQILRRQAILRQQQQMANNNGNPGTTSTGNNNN
Kind of assay: ITC.

The target of assay [4] is T1, Med15 KIX+ABD1,2,3 (Med15 1-651 …). Kind of assay: fluorescence polarisation. On the technique in general: Fluorescence polarisation rises when a labelled molecule tumbles more slowly, as on binding a larger partner.
In assay [5] the target is T4, Med15 ABD1,2,3 (Med15 158-651 Δ239-272, Δ373-483) (yeast, UniProt P19659 158-651, Δ239-272 | Δ373-483).
T4 sequence (looked up): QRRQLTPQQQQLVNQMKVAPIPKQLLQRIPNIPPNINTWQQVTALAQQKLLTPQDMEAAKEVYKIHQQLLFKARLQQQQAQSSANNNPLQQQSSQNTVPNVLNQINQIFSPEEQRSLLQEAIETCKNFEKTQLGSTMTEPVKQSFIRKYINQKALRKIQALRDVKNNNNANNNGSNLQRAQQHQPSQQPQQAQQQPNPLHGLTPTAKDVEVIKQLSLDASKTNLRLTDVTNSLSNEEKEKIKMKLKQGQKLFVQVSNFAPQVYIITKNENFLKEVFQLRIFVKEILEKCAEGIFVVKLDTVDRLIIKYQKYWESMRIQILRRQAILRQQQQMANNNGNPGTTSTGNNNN
Kind of assay: fluorescence polarisation.

Assay [6] concerns the target T3, Med15 ABD3 (Med15 484-651). Kind of assay: fluorescence polarisation.
In the assay “Met4 72-160” the target is B1. Kind of assay: ITC.

Consider five molecules from article doi:10.1101/228536 (bioRxiv, 2017).

For orientation: Kd means the concentration at which binding is half-saturated. A high value points to a looser complex. B1: the binding result in assay [1] was “binds”. The Kd in assay [2] stood at 20 µM; in assay [3] it was 1.36 µM.

B2: Oregon Green-labeled Met4 72-160 (domain or fragment, yeast, UniProt P32389 72-160, looked up)
chain: VTNRGNTNLYDHAVTPEILLEQLAYVDNFIPSLDNEFSNVDWNVNTTHNNANNNGADTFSSINANPFDLDEQLAIELSAFADDSFIFPD
modifications: Oregon Green 488 dye, N-terminal fluorescent label
As for B2, the dissociation constant Kd in assay [4] was 0.196 µM; in assay [5] it was approximately 0.3 µM. For the same molecule, the binding result in assay [6] is “binds”.

B3: Med15 ABD1 (Med15 158-238) (domain or fragment, yeast, UniProt P19659 158-238, looked up)
chain: QRRQLTPQQQQLVNQMKVAPIPKQLLQRIPNIPPNINTWQQVTALAQQKLLTPQDMEAAKEVYKIHQQLLFKARLQQQQAQ
With B3, the binding result in the assay with Met4 72-160 was “binds”.

B4: Oregon Green-labeled Ino2 1-41-(GS)3-96-160 (domain or fragment, yeast)
chain: MQQATGNELLGILDLDNDIDFETAYQMLSSNFDDQMSAHIHGSGSGSPHQPSMGFDQALGLKLSPSSSGLLSTNESNAIEQFLDNLISQDMMSSNASMNSESHLHIRSPKKQ
modifications: Oregon Green 488 dye, N-terminal fluorescent label
Take B4: the Kd in assay [4] was 0.21 µM; in assay [5], approximately 0.3 µM. For the same molecule, the binding result in assay [6] is “binds”.

B5: Ino2 1-41-(GS)3-96-160 (domain or fragment, yeast)
chain: MQQATGNELLGILDLDNDIDFETAYQMLSSNFDDQMSAHIHGSGSGSPHQPSMGFDQALGLKLSPSSSGLLSTNESNAIEQFLDNLISQDMMSSNASMNSESHLHIRSPKKQ
Regarding B5, the Kd in assay [2] amounted to 34 µM; in assay [3] it was 7.8 µM.
